Source: patent US12194082B2, “Compositions and methods for treatment of homocystinuria” (THE REGENTS OF THE UNIVERSITY OF COLORADO, priority 2016, dated 2025)
Several values for one entry are separate records, joined by “and”; a condition that tells them apart may be missing. Equal entries are not always repeated.

Legend:
[1] = test system: homocysteine, cystathionine, cysteine; assay: Pharmacodynamics after a single dose of PEGylated htCBS C15S in HO mice; type: in vivo
Protocol: Plasma metabolites homocysteine, cystathionine and cysteine were determined by stable-isotope-dilution liquid chromatography mass spectrometry as previously described in (Allen et al., 1993, Metabolism, 42: 1448-1460). Measurements of total non-protein bound homocysteine and other aminothiols as well as of amino acids in tissue were performed as described in (Maclean et al., 2010b. Mol. Genet. Metab. 101, 153-162). Metabolites were determined by stable-isotope-dilution liquid chromatography mass spectrometry.
For 20NHS PEG-htCBS C15S, HO mice were administered SQ a dose of 5, 10 or 15 mg/kg dose or were administered IV a dose of 10 mg/kg. For 400MA-htCBS C15S, HO mice received a single dose of 10 mg/kg either SC or IV of one of the three forms: (i) a mixture of all species, where no separation of individual forms has been attempted (mix), (ii) a homoPEGylated specie (Peak 1), and (iii) a hetero/hemiPEGylated species (Peak 2).
Both male and female HO mice were used in this example, and each group contained 3 to 4 mice. Two groups of mice designated “A” and “B” were used for each route of administration to minimize the blood volume taken from any one mouse. For SC administration, blood was collected from group A at 0.5, 3, 24, and 72 hours post-injection and from group B at 1, 6, 48, and 96 hours post-injection. […]

Hcy, Cth, Cys, Met = assay: Diet study (regular vs Met-restricted diet) in I278T mice: plasma metabolites; type: in vivo
Protocol: A diet study was performed in I278T mice and analyze them. Plasma metabolites of 10 weeks old mice: +/− I278T (control), −/− I278T (negative control), and −/− treated with 20NHS PEG-[…] (OT-58) mice. Each group was further divided into subgroups: one on a regular diet (8.2 g/kg Met TD.01084 diet+zinc water) (REG) and one on a methionine-restricted diet (0.5 g/kg Met TD.110591 diet+betaine water) (MRD). Treatment was begun at W5 of age.

KO mice = assay: Survival of KO mice treated with PEGylated htCBS C15S conjugates; type: in vivo, mouse
Protocol: A Kaplan Meyer survival curve was plotted of KO mice injected three times weekly with 7.5 mg/kg htCBS C15S PEGylated with ME-200MA0B (n=24), ME-400MA (n=31=13F+18M), or ME-200GS (n=28=14F+14M), and a group of KO mice (n=44) that was injected with PBS as a control. Lactating mothers were maintained on betaine water, and after weaning, the pups (day 21) were put on regular water with no betaine. The ability of the injected enzyme to rescue KO pups was tested.
After an initial 35 days (5 weeks) long treatment to prevent neonatal lethality of KO mice, the KO mice treated with 20NHS PEG-htCBS C15S were divided into two groups. One group (5 W) stopped receiving any treatment apart from the initial one, while the other group (CONT) continued with the same regimen for up to 120 days of age (7.5 mg/kg, SC, 3× a week).

[2] = Pharmacokinetics of 20NHS PEG-htCBS C15S in monkeys
Protocol: The pharmacokinetic (PK) parameters were calculated using a non-compartmental curve stripping model which resolves a curve into a series of exponential terms corresponding to the absorption, distribution and elimination phases occurring during the time course of the enzyme in the blood. The curve stripping approach assumes that the disposition phases of the drug follow apparent first-order kinetics, which is evidenced by the linearity in the terminal portion of a semi-log plot. These calculations were made using a modeling program called PK Solutions 2.0 (Summit Solutions, Montrose, CO) using the mean plasma enzyme activity for each route of administration. The bioavailability was calculated by dividing the area under the curve (AUC) for the SC or IP route by the AUC observed after IV administration.
For the single dose PK study, three experimental groups of 4 (n=2M+2F) monkeys each were used to conduct the experiments. The first group received 2 mg/kg 20NHS PEG-htCBS C15S via IV injection. Blood was collected at 0, 0.083, 0.16, 0.25, 0.5, 1, 2, 4, 8, 24, 72, 120, and 192 hours post IV injection. The second and third groups received either 2 mg/kg or 6 mg/kg 20NHS PEG-htCBS C15S via SC injection. Blood was collected at 0, 1, 2, 4, 8, 24, 48, 72, 96, 120, 192, 240, and 336 hours post SC injection.

I278T mice = assay: DEXA bone mineralization and body composition in I278T mice; type: in vivo, mouse; settings: 7.5 mg/kg SC 3x/week from 6 to 13 months of age
Protocol: A PIXImusII DEXA scanner (GE Lunar Medical Systems) specifically designed for scanning small animals such as mice was used for DEXA analysis. This machine enabled quick and efficient determination of the body composition (lean, fat mass, and bone density) of a mouse before terminal tissue extraction procedures. Mice were fasted for 4 hours prior to the DEXA measurement to remove food from the gastro-intestinal tract. Mice were then anesthetized using IP bolus injection of 60 mg/kg ketamine and 15 mg/kg xylazine and placed on a tray in the DEXA machine. After the measurement was done (3˜5 minutes), the mice were removed from the DEXA machine and used in terminal procedures, such as tissue extractions.
The bone mineral density (BMD) and bone mineral content (BMC) were analyzed by DEXA for three groups of I278T mice: +/− healthy heterozygous controls (n=10M+11F), −/− affected homozygous I278T controls (n=6M+8F), and 20NHS PEG-htCBS C15S-treated I278T mice (n=6M+6F). The 20NHS PEG-htCBS C15S (C15S/ME-200GS)-treated I278T mice were administered 7.5 mg/kg subcutaneously (SC) 3 times per week from the age of 6 months up to the age of 13 months. FIG. 17A, FIG. 17B, FIG. 17C, FIG. 17D, and FIG. 17E are graphs comparing BMD (g/cm^2), BMC (g), total mass (g), lean mass (g), and fat content (%), respectively, among the three groups of mice. […]

## 20NHS PEG-htCBS C15S: htCBS C15S PEGylated with ME-200GS PEG (20 kDa linear NHS ester-activated PEG)
[1]; SC, HO mouse model
  single dose producing maximal efficacy response: 5 mg/kg
[1]; single 10 mg/kg SC dose
  plasma levels of Hcy over time: remain decreased up to 72 hours
Hcy, Cth, Cys, Met; −/− I278T on MRD diet
  plasma Cth: 10 µM
Hcy, Cth, Cys, Met; −/− I278T on MRD diet (41 μM untreated)
  plasma Hcy: 2 µM
Hcy, Cth, Cys, Met; −/− I278T on REG diet
  plasma Cth: 113 µM
  plasma Met: 66 µM
Hcy, Cth, Cys, Met; −/− I278T on REG diet (356 μM untreated)
  plasma Hcy: 50 µM
Hcy, Cth, Cys, Met; −/− I278T on REG diet (356 μM untreated), listed as OT-58
  plasma Hcy: 51 µM
Hcy, Cth, Cys, Met; −/− I278T, MRD diet and/or treatment
  plasma Cys: normalize plasma levels of Cys
KO mice; 7.5 mg/kg three times weekly, day 21
  survival: about 97%
KO mice; continuous 7.5 mg/kg SC 3x a week up to 120 days of age
  survival of all mice: at least 119 days
KO mice; treatment terminated after initial 35 days
  survival at 119 days of age: about 85%
[2]; 2 mg/kg IV
  AUC(0-t) (obs area): 5942 ± 156 mU-h/μl
  Bioavailability: 100%
  CL (obs area): 22.4 ± 1.27 mL/day/kg
  MRT (area): 89.9 ± 2.4 h
  cp0: 96.5 ± 2.8 mU/μl
[2]; 2 mg/kg SC
  AUC(0-t) (obs area): 5263 ± 299 mU-h/μl
  Bioavailability: 80.8 ± 4.7%
  MRT (area): 116.3 ± 2.4 h
  cmax: 40.8 mU/μl and 40.8 ± 2.0 mU/μl
  tmax (obs): 26.2 ± 2.6 h
[2]; 6 mg/kg SC
  AUC(0-t) (obs area): 15743 ± 629 mU-h/μl
  Bioavailability: 79.9 ± 3.5%
  MRT (area): 116.2 ± 5.0 h
  cmax: 114.9 mU/μl and 114.9 ± 7.5 mU/μl
  tmax (obs): 32.4 ± 2.4 h
[2]; 6 SC doses every 72 hours
  CBS activity after repeated administrations: no attenuation of CBS activity
[2]; Monkey/both sexes, SC
  tmax: 29 h
[2]; monkeys, both sexes, across SC doses, listed as OT-58
  bioavailability (F %) after SC administration: 81%
I278T mice
  bone mineralization (BMD) vs healthy heterozygous controls: indistinguishable
  osteoporosis and body composition (DEXA): prevented profound osteoporosis and improved body composition
